Test results: patent US5985836A, “Alpha-1 proteinase inhibitor binding peptides” (Bayer Corporation, priority 1998, dated 1999)
Blank lines part the entries; values can stand above or below the substance they belong to. Ends that are not written are not given here.

Molecular target: T1, A1PI (Homo sapiens, UniProt P01009)
T1 construct: Human plasma is currently the only approved source of therapeutic AlPI
Assay: A1PI binding on peptide-resin column, injection of 1 mg A1PI in equilibration buffer
Settings: for % of Total A1PI Eluted by Fraction (Based on Absorbance at 280 nm), 1M NaCl / % of Total A1PI Eluted by Fraction (Based on Absorbance at 280 nm), 2% Acetic Acid / % of Total A1PI Eluted by Fraction (Based on Absorbance at 280 nm), Flowthrough: 1 mg A1PI
Method: Confirmatory binding assays were performed in a column chromatographic format on a microbore HPLC using individual peptide sequences synthesized directly onto the Toyopearl 650 M Chelate resin which had been modified with Totda followed by an alanine residue (A-Totda-Toyopearl), at a final substitution density of 0.1 mmole/g resin. The resin was packed into 0.4×5 cm columns (Thomson, Springfield, Va.) and tested on the Michrom HPLC system (Michrom BioResources, Auburn, Calif.). The elution program for all trials utilized the following method. The column was pre-equilibrated with equilibration buffer (as above). 1 ml of sample was injected and allowed sufficient time to flowthrough the column using equilibration buffer. The column was then washed with step elutions of 1M NaCl and 3M NaCl in equilibration buffer. The column was exposed to equilibration buffer with 0.1M NaCl. Any remaining protein was eluted with elution buffer (2% by volume glacial acetic acid in water).
A Gilson FC204 fraction collector at the HPLC outlet collected individual eluates for further analysis. Fractions collected from the 2% acetic acid eluates were neutralized with 2M Tris, pH 10.5 to bring the pH to neutrality. The protein samples were reconstituted in equilibration buffer unless otherwise stated. The samples were analyzed by the integration of the absorbance at 280 nm or by immunonephelometry. The specific method of determination is presented for each figure.
Tables 2 and 3 present the elution profiles for 19 sequences based on the injection of 1 mg AlPI in equilibration buffer at 4° C. and 20° C., respectively. The columns were run at a constant flow rate of865 μl/min (413 cm/hr) or 523 μl/min (250 cm/hr). No dependence of the elution profile with flow rate was found. The Percent AlPI Eluted by Fraction represents the amount eluted in the flowthrough, 1M NaCl wash, and 2% acetic acid fractions relative to the total AlPI eluted. The percentages are based on either the integration of the peak areas at […]

[1] = 1 mg A1PI in equilibration buffer, 4° C.
[2] = 1 mg A1PI in equilibration buffer, 20° C.

T1 sequence (P01009 25-418): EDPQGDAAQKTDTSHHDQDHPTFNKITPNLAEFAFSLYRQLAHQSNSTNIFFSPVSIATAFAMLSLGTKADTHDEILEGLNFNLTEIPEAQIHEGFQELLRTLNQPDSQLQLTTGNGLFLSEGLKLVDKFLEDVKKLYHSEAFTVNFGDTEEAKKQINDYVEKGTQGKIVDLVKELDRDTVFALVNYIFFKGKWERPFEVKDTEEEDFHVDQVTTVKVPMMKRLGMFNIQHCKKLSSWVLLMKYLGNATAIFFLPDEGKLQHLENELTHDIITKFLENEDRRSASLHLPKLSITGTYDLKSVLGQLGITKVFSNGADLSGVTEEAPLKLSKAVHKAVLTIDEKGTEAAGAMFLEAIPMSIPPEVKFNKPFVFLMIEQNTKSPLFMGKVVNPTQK

- % of Total A1PI Eluted by Fraction (Based on Absorbance at 280 nm), 1M NaCl (VIFLVR point mutations, 4° C.): 25%
- % of Total A1PI Eluted by Fraction (Based on Absorbance at 280 nm), 2% Acetic Acid (VIFLVR point mutations, 4° C.): 75%
- % of Total A1PI Eluted by Fraction (Based on Absorbance at 280 nm), Flowthrough (VIFLVR point mutations, 4° C.): 0%
- % of Total A1PI Eluted by Fraction (Based on Absorbance at 280 nm), 1M NaCl (VIFLVR point mutations, 20° C.): 0%
- % of Total A1PI Eluted by Fraction (Based on Absorbance at 280 nm), 2% Acetic Acid (VIFLVR point mutations, 20° C.): 25%
- % of Total A1PI Eluted by Fraction (Based on Absorbance at 280 nm), Flowthrough (VIFLVR point mutations, 20° C.): 75%
Substance: V I F L A R: point mutation of VIFLVR, position 5 (VIFLAR)

- % of Total A1PI Eluted by Fraction (Based on Absorbance at 280 nm), 1M NaCl (VIFLVR point mutations, 4° C.): 3%
- % of Total A1PI Eluted by Fraction (Based on Absorbance at 280 nm), 2% Acetic Acid (VIFLVR point mutations, 4° C.): 56%
- % of Total A1PI Eluted by Fraction (Based on Absorbance at 280 nm), Flowthrough (VIFLVR point mutations, 4° C.): 40%
Substance: V I F L F R: point mutation of VIFLVR, position 5 (VIFLFR)

- % of Total A1PI Eluted by Fraction (Based on Absorbance at 280 nm), 1M NaCl (VIFLVR point mutations, 4° C.): 4%
- % of Total A1PI Eluted by Fraction (Based on Absorbance at 280 nm), 2% Acetic Acid (VIFLVR point mutations, 4° C.): 40%
- % of Total A1PI Eluted by Fraction (Based on Absorbance at 280 nm), Flowthrough (VIFLVR point mutations, 4° C.): 56%
- % of Total A1PI Eluted by Fraction (Based on Absorbance at 280 nm), 1M NaCl (VIFLVR point mutations, 20° C.): 3%
- % of Total A1PI Eluted by Fraction (Based on Absorbance at 280 nm), 2% Acetic Acid (VIFLVR point mutations, 20° C.): 20%
- % of Total A1PI Eluted by Fraction (Based on Absorbance at 280 nm), Flowthrough (VIFLVR point mutations, 20° C.): 77%
Substance: V I F L Y R: point mutation of VIFLVR, position 5 (VIFLYR)

- % of Total A1PI Eluted by Fraction (Based on Absorbance at 280 nm), 1M NaCl (VIFLVR point mutations, 4° C.): 39%
- % of Total A1PI Eluted by Fraction (Based on Absorbance at 280 nm), 2% Acetic Acid (VIFLVR point mutations, 4° C.): 61%
- % of Total A1PI Eluted by Fraction (Based on Absorbance at 280 nm), Flowthrough (VIFLVR point mutations, 4° C.): 0%
Substance: V R F L V R: point mutation of VIFLVR, position 2 (VRFLVR)

- binding of AlPI (in words): little binding of AlPI
- % of Total A1PI Eluted by Fraction (Based on Absorbance at 280 nm), 1M NaCl (VIFLVR point mutations, 4° C.): 2%
- % of Total A1PI Eluted by Fraction (Based on Absorbance at 280 nm), 2% Acetic Acid (VIFLVR point mutations, 4° C.): 21%
- % of Total A1PI Eluted by Fraction (Based on Absorbance at 280 nm), Flowthrough (VIFLVR point mutations, 4° C.): 77%
- % of Total A1PI Eluted by Fraction (Based on Absorbance at 280 nm), 1M NaCl (VIFLVR point mutations, 20° C.): 0%
- % of Total A1PI Eluted by Fraction (Based on Absorbance at 280 nm), 2% Acetic Acid (VIFLVR point mutations, 20° C.): 8%
- % of Total A1PI Eluted by Fraction (Based on Absorbance at 280 nm), Flowthrough (VIFLVR point mutations, 20° C.): 92%
Substance: VIFLVA: point mutation of VIFLVR, position 6, C-terminal Arg replaced with Ala

More lines, now with the values behind:

Substance: V I D L V R: VIWLVR with Trp at position 3 replaced by Asp (VIDLVR)
- % of Total A1PI Eluted by Fraction (Based on Absorbance at 280 nm), 1M NaCl (Trp position mutations, 4° C.): 0%
- % of Total A1PI Eluted by Fraction (Based on Absorbance at 280 nm), 2% Acetic Acid (Trp position mutations, 4° C.): 0%
- % of Total A1PI Eluted by Fraction (Based on Absorbance at 280 nm), Flowthrough (Trp position mutations, 4° C.): 100%
- % of Total A1PI Eluted by Fraction (Based on Absorbance at 280 nm), 1M NaCl (Trp position mutations, 20° C.): 0%
- % of Total A1PI Eluted by Fraction (Based on Absorbance at 280 nm), 2% Acetic Acid (Trp position mutations, 20° C.): 16%
- % of Total A1PI Eluted by Fraction (Based on Absorbance at 280 nm), Flowthrough (Trp position mutations, 20° C.): 84%

Substance: V I F A V R: point mutation of VIFLVR, position 4 (VIFAVR)
- % of Total A1PI Eluted by Fraction (Based on Absorbance at 280 nm), 1M NaCl (VIFLVR point mutations, 4° C.): 46%
- % of Total A1PI Eluted by Fraction (Based on Absorbance at 280 nm), 2% Acetic Acid (VIFLVR point mutations, 4° C.): 54%
- % of Total A1PI Eluted by Fraction (Based on Absorbance at 280 nm), Flowthrough (VIFLVR point mutations, 4° C.): 0%
- % of Total A1PI Eluted by Fraction (Based on Absorbance at 280 nm), 1M NaCl (VIFLVR point mutations, 20° C.): 11%
- % of Total A1PI Eluted by Fraction (Based on Absorbance at 280 nm), 2% Acetic Acid (VIFLVR point mutations, 20° C.): 89%
- % of Total A1PI Eluted by Fraction (Based on Absorbance at 280 nm), Flowthrough (VIFLVR point mutations, 20° C.): 0%

Substance: V I R L V R: VIWLVR with Trp at position 3 replaced by Arg (VIRLVR)
- % of Total A1PI Eluted by Fraction (Based on Absorbance at 280 nm), 1M NaCl (Trp position mutations, 4° C.): 90%
- % of Total A1PI Eluted by Fraction (Based on Absorbance at 280 nm), 2% Acetic Acid (Trp position mutations, 4° C.): 10%
- % of Total A1PI Eluted by Fraction (Based on Absorbance at 280 nm), Flowthrough (Trp position mutations, 4° C.): 0%
- % of Total A1PI Eluted by Fraction (Based on Absorbance at 280 nm), 1M NaCl (Trp position mutations, 20° C.): 45%
- % of Total A1PI Eluted by Fraction (Based on Absorbance at 280 nm), 2% Acetic Acid (Trp position mutations, 20° C.): 55%
- % of Total A1PI Eluted by Fraction (Based on Absorbance at 280 nm), Flowthrough (Trp position mutations, 20° C.): 0%

Substance: V K F L V R: point mutation of VIFLVR, position 2 (VKFLVR)
- % of Total A1PI Eluted by Fraction (Based on Absorbance at 280 nm), 1M NaCl (VIFLVR point mutations, 4° C.): 66%
- % of Total A1PI Eluted by Fraction (Based on Absorbance at 280 nm), 2% Acetic Acid (VIFLVR point mutations, 4° C.): 34%
- % of Total A1PI Eluted by Fraction (Based on Absorbance at 280 nm), Flowthrough (VIFLVR point mutations, 4° C.): 0%
- % of Total A1PI Eluted by Fraction (Based on Absorbance at 280 nm), 1M NaCl (VIFLVR point mutations, 20° C.): 49%
- % of Total A1PI Eluted by Fraction (Based on Absorbance at 280 nm), 2% Acetic Acid (VIFLVR point mutations, 20° C.): 51%
- % of Total A1PI Eluted by Fraction (Based on Absorbance at 280 nm), Flowthrough (VIFLVR point mutations, 20° C.): 0%

Substance: WSSKRY
- Percent A1PI Eluted by Fraction Based on Absorbance at 280 nm, 1M NaCl [1]: 91%
- Percent A1PI Eluted by Fraction Based on Absorbance at 280 nm, 2% Acetic Acid [1]: 9%
- Percent A1PI Eluted by Fraction Based on Absorbance at 280 nm, Flowthrough [1]: 0%
- Percent A1PI Eluted by Fraction, 1M NaCl [2]: 97%
- Percent A1PI Eluted by Fraction, 2% Acetic Acid [2]: 3%
- Percent A1PI Eluted by Fraction, Flowthrough [2]: 0%
